# From the supplement of paper PMC12636428
# Test system: Saccharomyces cerevisiae
# Experiment: transcriptional activation domain activity (GFP:mCherry ratio, weighted mean of sorted bins, harmonized to initial dataset scale) (arbitrary fluorescence ratio units); higher = stronger transcriptional activation
# Conditions: beta-estradiol 1 µM; induction time 4 h
# Procedure, shortened: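 Values are activation activity, found as the read-weighted mean of bin median fluorescence, averaged across barcodes and then mapped linearly onto the initial dataset scale. Barcoded protein tiles fused to an estradiol-inducible synthetic transcription factor were integrated at the URA3 locus of GFP-reporter yeast diploids. Cells were induced for 4 hours at 30 °C with 1 uM beta-estradiol in SC, sorted into 8 bins by GFP:mCherry ratio, and barcode-sequenced, with tiles under 50 reads discarded.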
row,Sequence,transcriptional activation domain activity
1,FYAALYPFKGIFFFIGHPFLYPLARARLIPAFLLSAFVLLNLFFWTYLPQVAF,34300
2,LLCILLLVYFIYVALFLVSINTGVTLSGLNIQMSSKYSVYYLLIYHVFGFFWL,58900
3,LEEYYWKTLNFTTPMYGADTPGSIFPEGLNVWNVAKLPNILDHMETKVPGVND,88300
4,RKRGWSDEDGEGEGAEGGEAQNGKGKGKGRGRRARGKGKGKGKESAEAEKDED,27200
5,YASVLSLIMFFPLPFLSGEILDISRNCYILDVFFHWLMVVCGGLGSWAVFWST,78700
6,MLVRLQNRLLLLGIFSHCVYGWHLEVDYVSLSDAIQTVVVQCRNLTFHITGLG,53100
7,SAASRVAEEKSGDDEAAAAPGTGATPEGVKRKTTRGGKKNRSKKEGGAAAAAA,< 6570
8,IQEDNEEGERRRRRRKGKAGEETEGEKKEKKRKKNGATKSGKRGKMERNGKLK,28400
9,LKNLMATIGLTRKVLFTGRQLEFYLAAVKLLATKDVFVKWTAIAKNFFMIVWV,55500
10,LFLAGILRWGSRIVLVLFLLLLFRLSLLFCLGHLFFAYSLSTLGILLLLMIFF,31600
11,VLAGYVVHVFGGDYFHSFSMTFFTFIWTLLFMGYIFITRDYIPKCYFYWLHIA,54600
12,FVIGMSICRAAPGLYIYCWKENIFFLEPSYKSAAVVLSWVWFQVFLLLSQQFF,59200
13,THSKKQHCDVCKHPYSFTKVYASDMPKQLPLLLVLRKLVQQFFSVLLFSIRAI,45400
14,MKELSFFPISISIQRYSHIRWVLLHCTNYLISFVYHCYVIILSVFFFLYIFTA,76900
15,YMYSAFMRFFILGWPSYLVVVASIAVVLLLHILYFLVQLQLKNIFLLLLHCFA,60400
16,KLIYVRILGYLLHHMPSEAGLQQLVTEIVSFRTEEAFLKLGLLYFEHAIRLFR,36800
17,SSSKSKPIPDAKKRKSSASKPKSASSADRDTKRSGSRPESGKKSSTSSRSSKS,22900
18,QESVYIEVISYIGLIFDWFWYYILMNLSVFIWLACMYYTIFLYGFLEAYFPEK,33000
19,MDGLFFFFFPFFFLFITLPTNFILFLIVGGSSSSLFFFFGFWFLVWFGLVYLC,27600
20,KSRKRAKKSPEESEVESKHRRRRSRKAVEDENDENSHCKRTKKVAGAESEKAV,19700
21,GDERSRKAGEKETSRGGRGAGGGRRETGRKEKPGGKAGKGGRTRAGGRGREKK,21800

row,Sequence,transcriptional activation domain activity
1,LLLLLDRFIDRNHLLDHIKIGTSDLLNLPGQRSIYISRLCRAICILGYNVNND,30400
2,SFSVILFYFIFLISPGQKAAFVFPWSFFFFLFFFFFFFTFFYFRLFSANFVCV,45000
3,FLDCLKYILHNSHHLLVTVCDSFERTVRGLNKLKKMNVRQKDIYIGYYLLQYG,46200
4,MSPRAFFPPWFDFVHAFLVYALVARRLRLLFLPTHLAMHCTHLSLSLTLLFLL,60500
5,HIDSFLDQMCKVAEGGGFSLSTLADCVILFRDLARIYQEPFSSPFLRLLYAYT,65300
6,GRTLSRYEPTNVCVVLILIWLGIYHYFLQVLQVRTHATARKIVLLYGWYTLRI,53400
7,VVFVLIIFSLSILPSAPLVKTGALVVLASLLLMPITQQFFLPSLPIWTYLLYF,47500
8,SPMGSGSDEEEEERRRKRRKEKKRSKKSKRERSGSLSGSGSEGGGGKRKRHQD,36000
9,YKTTMARLIYLMDDKFKLFDHLRALKKYLLLGQGDFIALLMESLASNLDRPAN,55100
10,PLIQVPGYHSCGHGGLGGLCQASPTLLVISQSLFLRWWHTVHLLIEIYIWLWS,72200
11,TLKGIVLRNPVTLRLEEEEDDAANLTQYFVKCSEVDKFLLIQVMIKMRMIKGK,46700
12,EWFVMFCMMLLLLFWFFPISALASLLSYEEIKKIMPWLGRLIDANENIRAIVQ,62900
13,MQADNLPFMCVCPYFLSTYSSSLSLVFPLFFFLCLFLLFPFFAFLLLLSLFSC,44500
14,MRQARGLHCRCPFGYRASLVLCLYLDVLFEGGFLYFYFFVPFFHATTFFFFLL,37700
15,PAEGEAAAAPAAEESAAPAARTGSSSSSSSNEEKKKKAAKSKSRSVSRGKRTS,23200
16,MLYINHFLHSPRGLVEQAKSLFFLYLSFFFLFFFFPFISFHFSFNVPFSLNCI,50900
17,MVEAQDSSLSSTLFYLSFLDIGATFYTFLLLFFFLEDLEGFLLFIVFWMLLLV,44100
18,MGTTGWRTRAIPYGFVFFYFILVMSLFFSSPLLTTTAVFILFYLLFLFSCYSS,36000
19,KAAPAPAASGDEGGEDEDEEDGDAVARRHQSKRSRRGIVVEESDEEDEGEPAA,41100
20,MHILVELAVFLICRCSQIWRTWVQGGKLAISHNKLVRPTFFRRLLHCIWLFRL,72200
21,ASTAGPAAGGSVSAAPKRRGRPPKRKAEPEQGAEAQPAKKPRGRPRKSAVVEA,12000

row,Sequence,transcriptional activation domain activity
1,FFGVCLGFYGFSFRSNFEPGAIIHDYILFMTPSFASLCARFHIQWLLFILFIH,46800
2,MSLWISILHTTFLVGYHSIILSLSSPYHYCYLSFLFPIYPFLLGLFVFSLLSS,56600
3,NWNKYNWLIIAILSNFTSWFFHVWHHKLYSAFHDTSRIKNWNLFKTIQFWLFI,45300
4,VPMAYHHYIALLIFGAYLSNVNALCVLSLLPLLLHSLFWSLGATNFLLLSVYN,56600
5,TFQPEHTCFPFFLFFFFLFFPPLSFFLPLFFPYSFSVAPLLSAPTVTTHTFTF,52800
6,RGLVLCLCLCITLKTAFHMIAVYQPLHPLFTSIDLGHLQPQPFCKLGMILGIM,65900
7,LQILRVVLHLLIFDLHSSSSLTFPLPFPLALPFFIYPLNFLFLFWSFMCTFMY,84800
8,LYVSLHAVVGNVAEFYFVRYGLALVCALCQTIMFQVTSVTLNGRIGLFFLIAT,45400
9,SPQRSTSSTSSKAAAAPKAAAQPKQQQQKPAAPSKPAAAAAAPKTAPKPAAAS,26000
10,VPPELYVCAEIVRMVMGYVEGGFVKSSSNHKIRPEVLLIACLIVSIKICYSME,61300
11,NSWLCGFQGIALMYLVLLLLCFGVLLIANLHFLSVYRSTWLQIHMTPMIVLSF,57400
12,LREVYLLSLFYRIKIRFLEAGFNRLKNLIKLDTRYYIVSFTYIVLELLKAKML,63300
13,MGLIIYLGHMGCLMPRDDPTLFTIIHTNGIHHVCIVFCSCAISVHPWQQLLCH,29000
14,PRKFICLTNQLTARLGCELDKDHDLFKRTLYAVVQYVLVNHPHHILYNLIALS,46000
15,SPAPSFRGKSKAEEERERAVLDITDRVSKLLRKTQLQVRVIVECIHCKSPKHL,33300
16,RRKEKKPRFAKKDKGSKEPVSKTCRIALRIKLCHGNICVMEVSLSVLASLVLH,53100
17,DIDEQRLQLYGVQIQIFLFVVMLYIFGCNLVIASKMVVLQPRNMVSWCCLIPS,46800
18,EETKAEEPKATEAATTSTAPAAATEATTAATAETTTEEAKPATNGSTAAADAA,23200
19,NAPTADTDIATNLGKERNENFGMLNYNYEALLHFNDEHFNELNSIDPALISKY,107000
20,AVLSLLCSLLNTTLKYNPASWRVPYDHVVFKDPKQILVTYCLQLLLVLILYPI,37500
21,KAAEKPAPAVSPSAPAAKAVHHNNNSNAKKQEQQQQQRAKSPAAASASAPAPA,16600

row,Sequence,transcriptional activation domain activity
1,ESSGGESEDDYVQEKRSSKPKRRGSRRGDEEEGGGGRKRAAQKKRKRKQPEEV,34800
2,FYFSWIAQEKYTDAFLLKPLGHYLGTRQLNQENIFIAYYIFVLACHYTFLYVS,33300
3,GTSGTSVASRPSITPRAFGSSRSSRPSARSGSPSSRTAPSTPAPASSTRRTRP,31100
4,LSLWSHTCRHYCSVIRCKHICMILCHIRANNSLIGMIGILLVLNCTILPSNRV,69900
5,HLQTITINSEGDCGHCLSKYGILVIPTLERVVLVSREGRYPWSSWYLELRVFS,32100
6,LASLTPLISRRTPATTHARPHSTTQIPHRHHSAEMAEEQKPVVVADAPAAPAV,27800
7,KRPRKKKQQKAAAEEAAEPAGSGDEAAAPPEPKKRRKGKLRKEGDKNGNAAPA,28500
8,VPWSRSGHAIDLRFVRSFVAALVFLLLLLFLLLLLLLLLLLLLLLFLLFFFVF,37200
9,VLSRVTGLEHKQMCKIILGLIIDLLLPSGGDTSRILRTVRALLDFLYLAQLPS,73900
10,MDSGTLVGGANADGLVEIPLPGHDSIHLHVTHPRVMFLLTFLVSAACKRDPVS,27100
11,MITYIILLLFFLLYYSIILFTSFSFSFFITFILHTITTLPVFILSCCSTFFFF,66600
12,ESEDEGRDTTHDSDNEGDGHDANHGSENEGEGHDTTHDSKIEGAGRDAIRGSH,8090
13,PSEEAAAAAVEEEEDVTQPEKPKDPEPTPVQPKATPAPAPTPAKPAVPKSWAS,37300
14,GKPVIKISSFAPKLTVISSKQRPRRLSIKGSDGKDYQFLLKGHEDLRQDERVM,58400
15,FAQRKSPFTQLLAFFLTRGCVIAGYQIILLIVPLLAGVSYTWVPLLFCLSRVY,62100
16,LLFFFFLFLSFSSLLHVWGLCLPISSFVGLWSLYLLFSPIPIVLPRVKLLFLA,60200
17,ETVQKYDGYRPDILSIWNNEFYPIGKYNDDMTGFKFQMRIKEMQEFLDMEKYS,68500
18,MADTTDPPAPRKRGRPPKNKEGGATAKPVTLGPDGLPRKRGRPRKNPVVEVAT,20300
19,GSTNRSGDGSSDDERRKSRRRGRRRKASVSSSSSGGSKSSSTTSRSRSRSRSR,7680
20,PLWLAPNLVTLLGFFCILFNIFLLVILVPDLVGPGPSWLYYSFGLGVWMYSTM,68600
